Reference: publication PMC4763541, “Pitchfork and Gprasp2 Target Smoothened to the Primary Cilium for Hedgehog Pathway Activation” (PLoS ONE, 2016)

Biological target: T1, full-length hGPRASP2, purified recombinant (human, UniProt Q96D09 1-838)
T1 construct: human G protein-coupled receptor associated sorting protein 2 (GPRASP2), full length, cloned into pETM-11; source: E. coli Rosetta2 (DE3), purified (IMAC, TEV cleavage, second IMAC, SEC on Superdex 200); not shown: His6, N-terminal, cleaved
T1 sequence (looked up): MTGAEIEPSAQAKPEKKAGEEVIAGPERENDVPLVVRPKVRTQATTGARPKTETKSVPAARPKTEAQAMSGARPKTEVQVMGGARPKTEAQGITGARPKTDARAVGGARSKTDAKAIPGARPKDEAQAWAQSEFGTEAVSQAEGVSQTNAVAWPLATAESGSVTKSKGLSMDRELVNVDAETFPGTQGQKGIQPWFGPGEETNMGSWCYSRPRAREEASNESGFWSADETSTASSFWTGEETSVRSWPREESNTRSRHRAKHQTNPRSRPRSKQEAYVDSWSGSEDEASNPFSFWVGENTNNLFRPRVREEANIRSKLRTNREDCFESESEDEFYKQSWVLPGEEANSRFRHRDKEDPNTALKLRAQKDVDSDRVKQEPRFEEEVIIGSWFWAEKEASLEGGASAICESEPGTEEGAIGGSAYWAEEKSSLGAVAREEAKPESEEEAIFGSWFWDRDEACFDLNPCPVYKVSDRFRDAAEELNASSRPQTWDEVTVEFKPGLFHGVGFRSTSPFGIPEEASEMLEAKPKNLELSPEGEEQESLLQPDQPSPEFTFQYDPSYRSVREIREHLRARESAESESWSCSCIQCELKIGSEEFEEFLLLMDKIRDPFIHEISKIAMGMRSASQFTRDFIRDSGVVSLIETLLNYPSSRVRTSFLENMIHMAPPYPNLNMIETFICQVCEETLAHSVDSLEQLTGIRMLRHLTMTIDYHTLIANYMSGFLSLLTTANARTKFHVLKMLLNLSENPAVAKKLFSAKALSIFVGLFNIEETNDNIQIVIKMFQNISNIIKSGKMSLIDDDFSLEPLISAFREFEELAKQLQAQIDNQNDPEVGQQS
Assay: NMR titration; 1D 1H NMR (…), 800 MHz, 298 K; 100 μM peptide before and after addition of hGPRASP2 to 4 μM (1:25 hGPRASP2:peptide); 50 mM Tris.HCl pH 8, 300 mM NaCl, 0.01% 1-thioglycerol; line broadening and loss of intensity of the peptide signals
Settings: both partners purified

binding result: binds
B1: hSMO-WT peptide (human SMO aa 539-552) (peptide, UniProt Q99835 539-552, looked up)
peptide: KATLLIWRRTWCRL
notes: source: synthetic peptide (PSL GmbH)
